Assay: soluble on expression in E. coli; label from the status in PepcDB or PDB records

Row | Sequence | soluble on expression in E. coli
1 | MGSDKIHHHHHHMKVLFRSDSSSQIGFGHIKRDLVLAKQYSDVSFACLPLEGSLIDEIPYPVYELSSESIYELINLIKEEKFELLIIDHYGISVDDEKLIKLETGVKILSFDDEIKPHHCDILLNVNAYAKASDYEGLVPFKCEVRCGFSYALIREEFYQEAKENREKKYDFFICMGGTDIKNLSLQIASELPKTKIISIATSSSNPNLKKLQKFAKLHNNIRLFIDHENIAKLMNESNKLIISASSLVNEALLLKANFKAICYVKNQESTATWLAKKGYEVEYKY | not soluble
2 | MGSDKIHHHHHHMVRLSEAEVQNPKLGEYQCLADLNLFDSPECTRLATQSASGRHLWVTSNHQNLAVEVYLCEDDYPGWLSLSDFDSLQPATVPYQAATFSESEIKKLLAEVIAFTQKAMQQSNYYLWGGTVGPNYDCSGLMQAAFASVGIWLPRDAYQQEGFTQPITIAELVAGDLVFFGTSQKATHVGLYLADGYYIHSSGKDQGRDGIGIDILSEQGDAVSLSYYQQLRGAGRVFKSYEPQRR | soluble
3 | MSESFDCAKCNESLYGRKYIQTDSGPYCVPCYDNTFANTCAECQQLIGHDSRELFYEDRHFHEGCFRCCRCQRSLADEPFTCQDSELLCNDCYCSAFSSQCSACGETVMPGSRKLEYGGQTWHEHCFLCSGCEQPLGSRSFVPDKGAHYCVPCYENKFAPRCARCSKTLTQGGVTYRDQPWHRECLVCTGCQTPLAGQQFTSRDEDPYCVACFGELFAPKCSSCKRPIVGLGGGKYVSFEDRHWHHNCFSCARCSTSLVGQGFVPDGDQVLCQGCSQAGP | soluble
4 | MSLKLISNDLRDGDKLPHRHVFNGMGYDGDNISPHLAWDDVPAGTKSFVVTCYDPDAPTGSGWWHWVVVNLPADTRVLPQGFGSGLVAMPDGVLQTRTDFGKTGYDGAAPPKGETHRYIFTVHALDIERIDVDEGASGAMVGFNVHFHSLASASITAMFSEGGSHHHHHH | soluble
5 | GTQGKVIKCKAAIAWKTGSPLCIEEIEVSPPKACEVRIQVIATCVCHTDINATDPKKKALFPVVLGHECAGIVESVGPGVTNFKPGDKVIPFFAPQCKRCKLCLSPLTNLCGKLRNFKYPTIDQELMEDRTSRFTCKGRSIYHFMGVSSFSQYTVVSEANLARVDDEANLERVCLIGCGFSSGYGAAINTAKVTPGSTCAVFGLGCVGLSAIIGCKIAGASRIIAIDINGEKFPKAKALGATDCLNPRELDKPVQDVITELTAGGVDYSLDCAGTAQTLKAAVDCTVLGWGSCTVVGAKVDEMTIPTVDVILGRSINGTFFGGWKSVDSVPNLVSDYKNKKFDLDLLVTHALPFESINDAIDLMKEGKSIRTILTF | soluble
6 | MKREKKSFHLHMLSDATGETLISVGRAVASQYTMSQATEHIYPMIRNKTQLQRALDEIQQEPGIVLYTIIDKKIKILLRKRCEKIEIPCIDILHPVLNAFKSYLGIPTNLRVSAQHGLNADYFRRIEALDFTIEHDDGQSPNSLSDADVILVGISRTSKTPTSIYLANRGIKTANVPLIPGINLPDTLLGAKNALIIGLIASVERISHIRQNRNLGDDFSLESYTDRINISEELTYAKRICERFSWPVIDVTRRSIEETAAEIFELLSRFREGK | not soluble
7 | KIGKHTIKFPIFQGGMGVGISWDELAGNVAKEGALGVISAVGTGYYKNMRFVERIVAKKPFEALNFYSKKALNEIFANARKICGNNPLGANILYAINDYGRVLRDSCEAGANIIITGAGLPTNMPEFAKDFSDVALIPIISSAKALKILCKRWSDRYKRIPDAFIVEGPLSGGHQGFKYEDCFKEEFRLENLVPKVVEASKEWGNIPIIAAGGIWDRKDIDTMLSLGASGVQMATRFLGTKECDAKVYADLLPTLKKEDILLIKSPVGYPARAINTGVIKRIEEGNAPKIACVSNCVAPCNRGEEAKKVGYCIADGLGRSYLGNREEGLYFTGANGYRVDKIISVHELIK | not soluble
8 | MSLHELDYYLIELDNPFCSDLPKIIAVHDKNLRYTSMGRGSSIEMRTITAYGEILERYCLWNQTPDLTSAFCADKPMLSPEEQVLPISESIDDREVEWKSYYSLSNHQRIFIHRPINSACYSNYFTQTSNGSAVHETEELAINSALEELIERHLFNIFWLFESNILEKSFSSDEIEHAIESGWRLDFYEIRDYKSCTICVMINRSDRRFSKGAMTVGLSFGSDSDACIRAYTECLQTLEAYLAFDKKVNNASLYYLSGKGTSQWQRKINTSLSSTPLSITKSVFEKYSPYMFTEKTNNDLVYCEVVMPHLIPLQYEHERDIRVNPDLLGHLTHRNMCYPIGEGHHHHHH | not soluble
9 | MNELQFQQAAGISAGLSARWFPHIDAAMSEFGITAPLDQAMFIAQTGHESAGFTVLRESFNYSVEALKKTFGKRLTPYQCEMLGRIDGRQVAHQPQIANLVYGGRMGNKDAGDGWKYRGRGLIQITGLENYTRCGVALKLDLVANPGQLELERHAARSAAWFFVTKGCLKYSGDLVRVTQIINGGQNGFGDRRERFEKAKSVLV | not soluble
10 | MLSLPPPEFYKLWIINKSPYQLFNIYRSGIMKVKVLDASAIIHGYNPIIEEGEHYTTPEVLEEIESKKIIVEQALDFGKLKIMSPNREYIKKVEEVVKKTGDNLSQQDIGVLALALNLNAILYTDDYGIQNVAKKLNIEVRGIAFEPTNKDFIWRKICEGCKKLYPVDYEEDICEICGSPLKRKMVKSRLKKKRKKKLEHHHHHH | soluble
11 | MRRAGYLHLYGLNLVFDRVGKGPPVLLVAEEASRWPEALPEGYAFYLLDLPGYGRTEGPRMAPEELAHFVAGFAVMMNLGAPWVLLRGLGLALGPHLEALGLRALPAEGVEVAEVLSSKLSYGNIDLGGNL | soluble
12 | MALAQQLRSESDFEQLPDDVAVSANIADIEEKRGFTSHFVFVIEVKTKGGSKYLIYRRYRQFYALQSKLEERFGPESKNSPFTCSLPTLPAKVYMGAKQEIAETRIPALNAYMKNLLSLPVCVLMDPDVRIFFYQSAYDAEQVPQALRRLRPRTRKIKGVSPQGAIMDRMEAPRAEALFDFTGNSKLELSFKAGDVIFLLSKINKDWLEGTSQGATGIFPGSFVKILKDFPEDEDTTNWLRCYFYEDTGKTIKDIAVEEDLSSTPLFKDLLALMRREFQREDIALSYQDAEGDLVRLLSDEDVGLMVKQARGLPSQKRLFPWKLHVTQKDNYSVYNTVP | soluble
13 | KVLTIKSCNIHSGIGIRPHAQIELEYQGKIHKEISEGDGGYDAFMNALTKITNRLGISIPKLIDYEVRIPPGGKTDALVETRITWNKSLDLEEDQTFKTMGVHPDQTVAAVHATEKMLNQILQPWQI | soluble
14 | MKIAIAGAGAMGSRLGIMLHQGGNDVTLIDQWPAHIEAIRKNGLIADFNGEEVVANLPIFSPEEIDHQNEQVDLIIALTKAQQLDAMFKAIQPMITEKTYVLCLLNGLGHEDVLEKYVPKENILVGITMWTAGLEGPGRVKLLGDGEIELENIDPSGKKFALEVVDVFQKAGLNPSYSSNVRYSIWRKACVNGTLNGLCTILDCNIAEFGALPVSESLVKTLISEFAAVAEKEAIYLDQAEVYTHIVQTYDPNGIGLHYPSMYQDLIKNHRLTEIDYINGAVWRKGQKYNVATPFCAMLTQLVHGKEELLGAK | soluble
15 | MNINKSKKRDSAVDIDNHDPFSVLLMGVDERDGDKGRADSLIYMTVNPKTKTTEMVSIPRDTYTEIIGKGKMDKINHSYAFGGVQMTVDTVENFLDVPVDYFIKVNMESFKDVVDTLGGITVNSTFAFNYDGYSFGKGEITLNGKEALAYTRMRKEDPNGDFGRQNRQRQVIEGIINKGANISSITKFGDMFKVIENNVKTNLTFDDMWDIQSGYKEARSKVIQHELKGDGTKINGIYYYKADESSLSDITAELKESLNKLEHHHHHH | soluble
16 | MGSDKIHHHHHHMQVRDFIKHLKNGERPPLTLILGEESALRQQAQHAIASMIPEDQQAMNFGRYDMQQTPVGAALNDATSMPFFGDYREVVIDDPYFLTGEKNADKIDHDLAGLQAYFENPVPSTMMVIIAPYKKLDERKRLTKALKKAALIVNAAPLDEREARAALAQTFKKHQVTIDAPALDTLVQRTNGQYSIMMGEVRKLLTYASDGSPLTVAAVEALVPKQLNDRVFDLVTDVLRKNAAAALALYRDLLAQREEPIRLNALMLGQFRLLLQVKLLAKKGYSQGDIAGTLKAHPYRVKLAMRQVDRLPYQQLATAYSGLVDTETAMKTGTIDKALAFELFMLKYTGQQSGKHVRG | not soluble
17 | FLNNKHREKGLKAEEEACGFLKSLGFEMVERNFFSQFGEIDIIALKKGVLHFIEVKSGENFDPIYAITPSKLKKMIKTIRCYLSQKDPN | not soluble
18 | MSVLAVQAQRTSIGITAGTGTAWLSDTDRDVVFNPVWNAGATLVYSSETHWGFGADIKYSREGVKFTYAGTGNYNGQTMTTRVGSDFIRIPLRAIYFFNKNENAFRPNVSLGPSFGILTGGEIKTYDGDKNVIGTSKVSDSFRDVDFGLQGTAGASIMLSDGLWFSADIVYYQGLNKQNKNGTNTMLNSNVGINLGLRIGVGR | not soluble
19 | MDMNVEIFAGIVNNPLTKKALRNLSGSCKTCGDKRIKIAIDYALGYRSDACWKCRAAAKVVKKVIEAGGRAFNVDMNEIREKFRDAYWRKGLASVIKGIAHFGVRKPFVPGAPFQVVWDITYSCNLRCKHCYATAGKPLQDELTTDEALETIDKLDRLGVTIIAFSGGEPLVRRDIFELTRYAAEKGIYVAIATNGTLITEEIAKRMKENGVGYVQISLDGMKETHEAFRGIRGCFDKTVEGIRNAVKTGLFVNVSMTVTRYNYHEVPKVVELCEKLGVNWFMHYNFIPTGRGREIVEADITPEQREELLKWLYEKNYSSNISLLSTAPQFARVALQCQGEIVPTHFYNVNAGERLKELAEFIGGCGAGRFYFAIKANGDIQPCVFFPLKVGNVREDDLEELWLHNHVFEDLRDKDILEGCGSCGYRYVCGGCRARAYNYFGDYTKPDPGCVNNRRWWERISKIEVRA | not soluble
20 | MGITLGKKQLNKGRVSLYLNYSYNGKRRKEYLGIILDAPTSAERRAENRNKVLIARQIKAKKELEFLSVEYHLNDIENTFDDILPTDKSNVPDFYILIGQYLDTYHKKDKKMVRACITHLRLFTRKKSLPITLLTKDFCINFLEYLRDHLRGNTPIGYFKKFKMCINKCIEKKLMTSNPTDGIRLMQFDEVTKAILSLKEIQKLAITPCPNNEVKRAFLFSCYCGLRWCDVHQLQYKDIDFSSNRLTILQQKVQSHSKNAILHLNLNHTAIKLLQRHKGINEELVFGLPSYSYTL | not soluble
21 | MSLSRFYHNLKFRSIPTTCATAQMCADRDEMQDSLICIPHFAAPEHYLFAGIDGHSGKYVSYKFSIRFPEIFYEMLSRDSGALNIIDALYQSFDTIQNEFANDPNVTDGAVATVIFMTPTKIYTAQCGDCRAVYITSSGVVQLAPEHKTSDRIEQMRIRSQGGFVSENLRVCGLLVARSVGDVKNKPIITHVPDITCFDRRDDEEYLVVATDGVWDEISNLKIHDILHSNRRVYRTSELSGLVKDIACVSCISGQHPDNIGIVLCRFEGHHHHHH | soluble
22 | MKEARKRMVKRAVQEIKDGMNVNLGIGMPTLVANEIPDGVHVMLQSENGLLGIGPYPLEGTEDADLINAGKETITEVTGASYFDSAESFAMIRGGHIDLAILGGMEVSEQGDLANWMIPGKMVKGMGGAMDLVNGAKRIVVIMEHVNKHGESKVKKTCSLPLTGQKVVHRLITDLAVFDFVNGRMTLTELQDGVTIEEVYEKTEADFAVSQSVLNS | soluble
23 | MVKIVKAQFHTAGKLYDFGAGDLDLKPGDKIIVETERGRSIATVVTPPREYEEAHVPEGLKTAIRIAEPSDLASAARNDAREQEAHAFCLRKIKERGMEMKLVKVEYLFDGSKAIFYFTADGRVDFRELVKDLAHQFHTRIEMRQIGVRDESKMIGGIGICGRELCCSSFLREFEPVSVKMAKEQNLALNPTKISGQCGRLLCCLGYEYETYCSLKKCLPKCGKVVKCGSTEGEVIKQNIIEGTVFVKTDDDRIVELKGESIKPEDISERPKSPRREGGTREREKEPQSSSDNQRREKPRDREQKPGDDGEQRRERDTKKNQDQQRGERGNRDRRGGKGRDKDKKEPKLEHHHHHH | soluble
